From patent publication EP4803139A2

Assays:
[1] = target: human PCSK9 (proprotein convertase subtilisin/kexin type 9), wild type (human) (UniProt Q8NBP7); experiment: BIAcore SPR, human PCSK9, pH 6.0
[2] = target: human PCSK9 (proprotein convertase subtilisin/kexin type 9), wild type (human) (UniProt Q8NBP7); experiment: BIAcore SPR, human PCSK9, pH 7.4
[3] = target: human PCSK9 (proprotein convertase subtilisin/kexin type 9), wild type (human) (UniProt Q8NBP7); experiment: KinExA solution equilibrium, PCSK9-coated beads
[4] = target: human PCSK9 (proprotein convertase subtilisin/kexin type 9), wild type (human) (UniProt Q8NBP7); experiment: BIAcore SPR, antibody amine-coupled to CM5, PCSK9 as analyte, pH 7.4
[5] = target: human PCSK9 (proprotein convertase subtilisin/kexin type 9), wild type (human) (UniProt Q8NBP7); experiment: BIAcore solution equilibrium assay, 21B12 immobilised on CM5, one-site fit in KinExA Pro

Row | Kd [1] [nM] | koff [1] [s⁻¹] | kon [1] [M⁻¹ s⁻¹] | Kd [2] [nM] | koff [2] [s⁻¹] | kon [2] [M⁻¹ s⁻¹] | Kd [3] [nM] | Kd [4] [nM] | Kd [5] [nM] | Binder
1 | 0.029 | 7.01e-05 | 2.39e+06 | 0.47 | 4.98e-05 | 106000 | 0.015 | 0.47 | – | 16F12, anti-PCSK9 huIgG4 (antibody, V domains shown) VH: QVHLVESGGGVVQPGRSLRLSCAASGFTFNSFGMHWVRQAPGKGLEWVALIWSDGSDEYYADSVKGRFTISRDNSKNTLYLQMNSLRAEDTAVYYCARAIAALYYYYGMDVWGQGTTVTVSS VL: QSVLTQPPSVSAAPGQKVTISCSGSSSNIGNNFVSWYQQLPGTAPKLLIYDYNKRPSGIPDRFSGSKSGTSATLGITGLQTGDEADYYCGTWDSSLSAYVFGTGTRVTVLQ
2 | 0.0073 | 1.68e-05 | 2.29e+06 | 0.19 | 6.63e-06 | 34900 | – | 0.19 | 0.015 | 21B12, anti-PCSK9 huIgG4 (antibody, V domains shown) VH: QVQLVQSGAEVKKPGASVKVSCKASGYTLTSYGISWVRQAPGQGLEWMGWVSFYNGNTNYAQKLQGRGTMTTDPSTSTAYMELRSLRSDDTAVYYCARGYGMDVWGQGTTVTVSS VL: QSALTQPASVSGSPGQSITISCTGTSSDVGGYNSVSWYQQHPGKAPKLMIYEVSNRPSGVSNRFSGSKSGNTASLTISGLQAEDEADYYCNSYTSTSMVFGGGTKLTVLQ
